The source of these data is PMC6471432, “The 3′ Untranslated Region of a Plant Viral RNA Directs Efficient Cap-Independent Translation in Plant and Mammalian Systems”.

The target of series [1] is T1, human eIF4E (Homo sapiens, UniProt P06730 1-217). Put plainly: EMSA; EMSA: 10 mM HEPES pH 7.5, 20 mM KCl, 1 mM DTT, 3 mM MgCl2, 1 ug/uL tRNA, 0.5 ug/uL BSA, 1 U/uL RNaseOUT, 5% glycerol, 10 uL, 25 min on ice, gel at 4 C; SHAPE: benzoyl cyanide, 22 C. The conditions noted are these: protein: recombinant; label: 32P; pseudoknot between C and G domains. (In general: In EMSA bound probe runs differently from free probe, usually more slowly.)
T1 sequence (P06730 whole entry): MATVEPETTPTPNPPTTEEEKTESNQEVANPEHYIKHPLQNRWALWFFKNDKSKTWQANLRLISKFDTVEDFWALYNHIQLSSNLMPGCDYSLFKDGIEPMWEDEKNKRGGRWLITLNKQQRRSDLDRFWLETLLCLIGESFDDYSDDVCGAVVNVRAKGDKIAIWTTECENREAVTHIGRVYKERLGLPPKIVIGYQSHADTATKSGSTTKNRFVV

The target of series [2] is T1, human eIF4E. As to the kind of experiment: EMSA; text: not shifted by 2 uM; EMSA: 10 mM HEPES pH 7.5, 20 mM KCl, 1 mM DTT, 3 mM MgCl2, 1 ug/uL tRNA, 0.5 ug/uL BSA, 1 U/uL RNaseOUT, 5% glycerol, 10 uL, 25 min on ice, gel at 4 C; SHAPE: benzoyl cyanide, 22 C. To be noted: protein: recombinant; label: 32P; pseudoknot between C and G domains; three bands without protein.

B1: PEMV2 PTE capped (structured_RNA)
RNA: GUAGUGGUAGAACACGUGGGAUAGGGGAUGACCUUGUCGACCGGUUAUCGGUCCCCUGCUCCUUCGAGCUGGCAAGGCGCUCACAGGUUCUACACUGCUACUA
modifications: 5' cap
Usually Kd stands for the concentration at which binding is half-saturated. On to B1, for which, in series [1], the Kd was determined as 285 ± 33 nM.

B2: PEMV2 PTE uncapped (structured_RNA)
RNA: GUAGUGGUAGAACACGUGGGAUAGGGGAUGACCUUGUCGACCGGUUAUCGGUCCCCUGCUCCUUCGAGCUGGCAAGGCGCUCACAGGUUCUACACUGCUACUA
Consider B2, for which the dissociation constant Kd in series [2] was found to be 2520 ± 435 nM.

B3: TPAV PTE capped (structured_RNA)
RNA: GGACAAGACCCCAGGCGGGACGCCACACCCAUGUUUGCAGACAUGGCCCGAGGAAACUCUGGUGUGGGCUGGGGGGAAUCC
modifications: 5' cap
Consider B3, for which, in series [1], the Kd worked out at 160 ± 1 nM.

B4: TPAV PTE uncapped (structured_RNA)
RNA: GGACAAGACCCCAGGCGGGACGCCACACCCAUGUUUGCAGACAUGGCCCGAGGAAACUCUGGUGUGGGCUGGGGGGAAUCC
B4: the equilibrium dissociation constant (Kd) in series [1] turned out to be 838 ± 124 nM.
